Article PMC5748987 (The Journal of Cell Biology, 2018)

B1: GST-xAurA (full length, amino acids 1–407) (enzyme)
chain: MERAVKENHKPSNVKIFHPMTEGAKRIPVNQPQSTQFRPPGTAVSAQRILGPSNVPQRVLAQAQKPILSSQKPTTQIPLRPATQGHQSSKPQGPNENRNPQQTSHSSTPNVEKKGSTDQGKTSAVPKEEGKKKQWCLEDFEIGRPLGKGKFGNVYLARERESKFILALKVLFKSQLEKAGVEHQLRREVEIQSHLRHPNILRLYGYFHDASRVYLILDYAPGGELFRELQKCTRFDDQRSAMYIKQLAEALLYCHSKKVIHRDIKPENLLLGSNGELKIADFGWSVHAPSSRRTTLCGTLDYLPPEMIEGRMHDETVDLWSLGVLCYEFLVGKPPFETDTHQETYRRISKVEFQYPPYVSEEARDLVSKLLKHNPNHRLPLKGVLEHPWIIKNSQLKKKDEPLPGAQ
B2: xAurA (cleaved from mCherry-xAurA) (enzyme)
chain: B1 chain
B3: GST-xAurA(127–407) (domain or fragment)
chain: KEEGKKKQWCLEDFEIGRPLGKGKFGNVYLARERESKFILALKVLFKSQLEKAGVEHQLRREVEIQSHLRHPNILRLYGYFHDASRVYLILDYAPGGELFRELQKCTRFDDQRSAMYIKQLAEALLYCHSKKVIHRDIKPENLLLGSNGELKIADFGWSVHAPSSRRTTLCGTLDYLPPEMIEGRMHDETVDLWSLGVLCYEFLVGKPPFETDTHQETYRRISKVEFQYPPYVSEEARDLVSKLLKHNPNHRLPLKGVLEHPWIIKNSQLKKKDEPLPGAQ
B4: GST-xBuGZ(8–58) (domain or fragment)
chain: not shown

Legend:
[1] = target: T1, YFP-xBuGZ (full length) (Xenopus laevis, UniProt Q7ZXV8 1-452); assay: pull-down
[2] = target: T1, YFP-xBuGZ (full length); assay: co-sedimentation
[3] = target: YFP-xBuGZΔN7 (Xenopus laevis, UniProt Q7ZXV8 8-452); assay: pull-down
[4] = target: B2; assay: pull-down

T1 sequence (Q7ZXV8 whole entry): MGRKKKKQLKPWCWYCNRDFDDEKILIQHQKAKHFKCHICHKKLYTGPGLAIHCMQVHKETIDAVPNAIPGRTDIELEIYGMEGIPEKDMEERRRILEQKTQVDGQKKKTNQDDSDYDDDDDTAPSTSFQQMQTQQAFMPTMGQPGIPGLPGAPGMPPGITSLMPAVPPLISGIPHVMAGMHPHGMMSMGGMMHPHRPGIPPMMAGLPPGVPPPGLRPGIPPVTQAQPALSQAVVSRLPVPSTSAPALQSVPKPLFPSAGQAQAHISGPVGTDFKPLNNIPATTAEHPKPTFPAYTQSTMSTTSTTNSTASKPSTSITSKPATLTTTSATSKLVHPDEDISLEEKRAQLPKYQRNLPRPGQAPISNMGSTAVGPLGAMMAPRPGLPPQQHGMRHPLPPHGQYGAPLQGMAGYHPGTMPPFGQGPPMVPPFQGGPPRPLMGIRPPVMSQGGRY
Sequence of YFP-xBuGZΔN7 (Q7ZXV8 8-452, stated change not applied): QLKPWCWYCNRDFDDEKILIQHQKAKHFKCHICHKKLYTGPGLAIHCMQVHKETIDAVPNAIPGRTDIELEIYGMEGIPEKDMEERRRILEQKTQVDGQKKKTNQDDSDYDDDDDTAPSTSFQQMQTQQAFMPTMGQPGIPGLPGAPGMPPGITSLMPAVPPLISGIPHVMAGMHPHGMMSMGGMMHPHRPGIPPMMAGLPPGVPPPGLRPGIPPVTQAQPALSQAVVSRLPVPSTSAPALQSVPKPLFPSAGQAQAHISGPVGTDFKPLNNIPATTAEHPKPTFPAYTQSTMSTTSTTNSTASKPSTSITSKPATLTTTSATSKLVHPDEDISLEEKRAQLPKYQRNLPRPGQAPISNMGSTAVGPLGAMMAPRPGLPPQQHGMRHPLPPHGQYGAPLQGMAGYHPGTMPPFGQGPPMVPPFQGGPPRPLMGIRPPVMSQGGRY

Binder: B1
binding result [1]: binds

Binder: B2
binding result [2]: binds
binding result [3]: binds

Binder: B3
binding result [1]: binds

Binder: B4
binding result [4]: binds
